Measurements taken from US20150225457A1.

Target: mouse CEACAM1 on SEB-responsive T cells (mouse), P31809
Test: cell-based or functional assay

B1: mouse CEACAM1 N-domain Fc fusion protein, P31809 35-142 (Fc fusion, UniProt P31809 35-142, looked up, not shown: a dimerising Fc or GST)
chain: EVTIEAVPPQVAEDNNVLLLVHNLPLALGAFAWYKGNTTAIDKEIARFVPNSNMNFTGQAYSGREIIYSNGSLLFQMITMKDMGVYTLDMTDENYRRTQATVRFHVHP
- TIM3 up-regulation on SEB-responsive T-cells after in vitro re-stimulation (% Mean Fluorescence): 29
